The assay addresses IL-1 receptor (IL-1R1) on A375.s2 cells (UniProt P14778). Kind of assay: cell-based or functional assay.
Chain of UniProt P14778 (P14778 18-569 limits assumed): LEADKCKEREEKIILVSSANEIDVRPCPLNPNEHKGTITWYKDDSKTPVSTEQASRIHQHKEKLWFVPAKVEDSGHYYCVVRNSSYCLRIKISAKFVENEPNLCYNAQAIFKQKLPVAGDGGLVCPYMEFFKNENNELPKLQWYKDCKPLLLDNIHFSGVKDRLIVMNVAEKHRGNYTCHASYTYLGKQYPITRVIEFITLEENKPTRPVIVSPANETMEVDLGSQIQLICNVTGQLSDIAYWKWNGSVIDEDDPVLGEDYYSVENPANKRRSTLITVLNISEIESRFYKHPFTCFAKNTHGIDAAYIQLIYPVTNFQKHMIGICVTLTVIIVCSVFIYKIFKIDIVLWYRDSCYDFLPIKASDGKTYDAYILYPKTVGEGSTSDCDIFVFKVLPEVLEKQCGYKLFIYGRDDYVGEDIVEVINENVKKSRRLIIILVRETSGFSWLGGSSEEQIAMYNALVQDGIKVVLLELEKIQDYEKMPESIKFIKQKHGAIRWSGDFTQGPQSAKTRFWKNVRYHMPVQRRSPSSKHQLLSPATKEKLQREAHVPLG

Take “IL-1RN-TNFR2-Fc dual-target fusion protein (IL-1RN D74N, TNFR2, hIgG4 Fc S228P) (Fc fusion)”: the IL1RN activity IC50 is 0.714 µg/mL. Substance “Wild-type IL-1RN-Fc of Table 2 (from UniProt P18510 26-177) (Fc fusion)” displayed an IC50(µg/ml), inhibition of IL-1β induced A375.s2 apoptosis (MTS, 490 nM) of 12.1 µg/mL. In turn, “IL-1RN D74N-Fc without linker (from UniProt P18510 26-177) (Fc fusion)” registered an IC50(µg/ml), inhibition of IL-1β induced A375.s2 apoptosis (MTS, 490 nM) of 4.85 µg/mL and a biological activity relative to the wild type of 3 fold. “IL-1RN-Fc, single-target comparator of Table 4 (from UniProt P18510 26-177) (Fc fusion)” showed an IL1RN activity IC50 of 0.333 µg/mL.

(Values after patent publication US20240018206A1.)
